Reference: US20260133192A1 (FRED HUTCHINSON CANCER CENTER, published 2026)
*1 amine or outer side, *2 acyl side, *3 side chain or, on linkers, in order; H or OH if unused. Where no end group is shown, it is not given here. [ ]: non-standard residue; d: D form. βAsp = O=C(O)[C@H](CC(=O)[*:2])N[*:1]; Cit = NC(=O)NCCC[C@H](N)C(=O)O

Columns and labels:
Experiment in all cases: B cells sorted with PTM-peptide tetramers; PTM epitope to which the cloned antibody binds, Table 7
[1] = molecular target: T1, TFRC-1 PTM peptide DFPAA{Cit}RLYW (human)
T1 construct: Synthetic citrullinated fragment of TFRC
T1 peptide: DFPAA[Cit]RLYW
Text: (§1) Once the immunogenic PTM peptides targeted by autoantibodies were identified, PTM-specific autoantibodies were isolated directly from SCLC patients and sequenced (FIG. 13). To accomplish this, PTM-binding B cells were enriched from SCLC patient peripheral blood mononuclear cells using PTM-peptide tetramers. PTM-peptide tetramers were created by combining PE- or APC-labeled magnetic tetramers containing streptavidin cores with biotinylated PTM peptides identified to bind more AAb from SCLC patient plasma compared to wildtype peptides. Five different PTM peptides were included in each PTM-tetramer; 5 citrullinated TFRC peptides were conjugated to PE-tetramers and 5 isoaspartylated peptides (3 CA9, 1 PLD3 and 1 SPINK1) were conjugated to APC-tetramers. These PTM-tetramers were then incubated with pooled peripheral blood mononuclear cells (PBMCs) from 3 different SCLC patients and tetramer bound cells were isolated with magnetic microbeads. This PTM-tetramer ‘enriched’ fraction was labeled with fluorescent antibodies and fluorescence activated cell sorted (FACS) into single cells. PTM-tetramer+ B cells were sorted, heavy and light chain antibody sequences from each B cell were amplified by RT-PCR, and heavy and light chain pairs were successfully sequenced. These sequences were cloned into human IgG expression vectors for antibody production and are shown in Table 7 with the location of the CRs underlined. The sequences of the CDRs were determined using the ImMunoGeneTics (IMGT) information system domain gap align.

[2] = molecular target: T2, TFRC-2 PTM peptide DFPAAR{Cit}LYW (human)
T2 construct: Synthetic citrullinated fragment of TFRC
T2 peptide: DFPAAR[Cit]LYW
Text: as §1

[3] = molecular target: T3, TFRC-4 PTM peptide LNDRVM{Cit}VEYC (human, also: biotinylated, site not given here)
T3 construct: Synthetic citrullinated fragment of TFRC; biotinylated on streptavidin tetramers for B cell sorting
T3 peptide: LNDRVM[Cit]VEYC
Text: as §1

[4] = molecular target: T4, TFRC-5 PTM peptide LND{Cit}VMRVC (human, also: biotinylated, site not given here)
T4 construct: Synthetic citrullinated fragment of TFRC; biotinylated on tetramers for B cell sorting
T4 peptide: LND[Cit]VMRVC
Text: as §1

[5] = molecular target: T5, SPINK1-1 PTM peptide YNEL{iso-Asp}GCTKI (human)
T5 construct: Synthetic isoaspartylated fragment of SPINK1
T5 peptide: YNEL[βAsp]GCTKI
Text: as §1

[6] = molecular target: T6, CA9-3 PTM peptide GV{isoAsp}SSPR (human)
T6 construct: Synthetic isoaspartylated fragment of CA9
T6 peptide: GV[βAsp]SSPR
Text: as §1

B1: 2H5 (antibody, V domains shown)
VH: EVQLLESGGGLAQPGGSLRLSCGASGFTFSSHALSWVRLAPGKGLEWVSAISGSGDRTYYADSVKGRFTISRDNSKNMLYLQMNSLRGEDTAVYYCAKEATESYATSWGQGTLVTVSS
VL: DIQMTQSPSTLSASVGDRVTITCRASQSISSWLAWYQQKPGKAPNLLISKAFSVESGVPSTFSGSGSGTEFTLTISSLQPRDSASYYCQQYDSGWTFGQGTKVEIK
B1: binds [1]; binds [2].

B2: 2D2 antibody (antibody, V domains shown)
VH: QVQLVESGGGVVQPGRSLRLSCAASGFTFNSFALMWVRQAPGKGLEWVAVISNDGSNTYYADSVKGRFTISRDNSKNTLYLQMNSLRAEDTAVYYCARGSQYYGSGRYSRKQFDYWGQGTMVTVSS
VL: DIQMTQSPLSLPVTPGEPASISCRSSQSLLHADDGNTYLDWYLQKPGQSPQLLIYTLSSRASGVPDRFSGSGSGTNFTLRISRVEAEDVGVYYCMQRIESPLTFGGGTKVEIK
notes: From B cells of SCLC patient PBMCs; Labeled with CF770 for the in vivo imaging; also called 770-labeled 2D2 antibody
B2: binds [3].

B3: 2H8 (antibody, V domains shown)
VH: QVQLVESGGGVVQPGRSLRLSCAASGFTFSTYGMHWVRQAPGKGLQWVAQISNDGSSKYYGDSVKGRFTISRDNSKNTLYLQMNSLRVEDTGVYYCASSGSSGTWGQGTQVTVSS
VL: EIVLTQSPATLFLFPGERVTFSCRASQSVNNYLAWYQQKPGQAPRLLIYDVSNRATGIPARFSGSGSGTDFTLTISSLDPEDFAVYFCQQRSNWPLTFGGGTKVEIK
B3: binds [4].

B4: 1A6 (antibody, V domains shown)
VH: QAGLLESGGGVVQPGRSLRLSCAASGFTFSSYGMHWVRQAPGKGLEWVAVIWYDGSNKYYADSVKGRFTISRDNSKNTLYLQMNSLRAEDTAVYYCARGGGITGTVSRKQGMDVWGQGTLVTVSS
VL: AIQLTQSPSSLSASVGDRVTITCRASQGISSYLAWYQQKPGKAPKLLMYGASTLQSGVPSRFSGSGSGTDFTLTISSLQPEDFATYYCQQVNSYPLTFGGGTKVEIK
B4: binds [5].

B5: 1B3 (antibody, V domains shown)
VH: QVQLVESGGGLVQPGGSLRLSCAASGFTFSSYWMSWVRQAPGKGLEWVANIKQDGSEEYYVDSVKGRFTISRDNAKSLLYLQMNSLRPEDTAVYYCAGDSLPSSGWEGYFQHWGQGTLVTVSS
VL: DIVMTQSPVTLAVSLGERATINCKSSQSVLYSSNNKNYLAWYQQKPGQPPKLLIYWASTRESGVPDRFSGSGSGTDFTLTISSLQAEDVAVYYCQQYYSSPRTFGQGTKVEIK
B5: binds [6].
